Biological target: T1, polycystin-2 L677A N681A, HA-tagged (human, UniProt Q13563 1-968, L677A | N681A)
T1 sequence (looked up): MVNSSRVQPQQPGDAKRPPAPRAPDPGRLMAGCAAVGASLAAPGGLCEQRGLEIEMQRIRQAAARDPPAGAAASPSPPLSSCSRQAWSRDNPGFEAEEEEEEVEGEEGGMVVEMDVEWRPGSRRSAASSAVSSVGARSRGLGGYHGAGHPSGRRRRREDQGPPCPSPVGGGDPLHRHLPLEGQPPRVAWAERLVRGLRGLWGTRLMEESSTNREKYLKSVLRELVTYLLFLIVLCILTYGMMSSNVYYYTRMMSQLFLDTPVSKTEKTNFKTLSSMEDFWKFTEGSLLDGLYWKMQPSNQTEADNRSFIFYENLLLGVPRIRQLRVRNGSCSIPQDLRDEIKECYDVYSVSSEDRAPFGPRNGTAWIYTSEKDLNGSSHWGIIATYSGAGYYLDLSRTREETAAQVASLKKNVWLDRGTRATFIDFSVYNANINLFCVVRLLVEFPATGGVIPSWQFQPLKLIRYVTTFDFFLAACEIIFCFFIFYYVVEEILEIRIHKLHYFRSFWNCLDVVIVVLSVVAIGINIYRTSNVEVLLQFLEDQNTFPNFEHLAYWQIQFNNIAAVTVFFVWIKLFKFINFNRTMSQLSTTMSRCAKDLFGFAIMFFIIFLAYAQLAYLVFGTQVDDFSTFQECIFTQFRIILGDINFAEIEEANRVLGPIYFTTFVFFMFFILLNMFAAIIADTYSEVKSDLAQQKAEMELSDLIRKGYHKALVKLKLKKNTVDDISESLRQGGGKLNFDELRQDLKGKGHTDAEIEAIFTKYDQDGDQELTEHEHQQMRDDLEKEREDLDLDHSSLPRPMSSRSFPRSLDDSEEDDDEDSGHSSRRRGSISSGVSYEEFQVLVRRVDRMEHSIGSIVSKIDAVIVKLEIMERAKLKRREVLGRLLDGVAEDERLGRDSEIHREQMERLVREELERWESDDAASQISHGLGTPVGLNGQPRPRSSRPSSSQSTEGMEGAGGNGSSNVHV
Test: cell-based or functional assay

B1: C-terminal fragment of polycystin-1 R4100A R4107A H4111A (PC1-CTF AAA), V5-tagged (domain or fragment, human, UniProt P98161 3049-4303, looked up)
chain: TAFGASLFVPPSHVRFVFPEPTADVNYIVMLTCAVCLVTYMVMAAILHKLDQLDASRGRAIPFCGQRGRFKYEILVKTGWGRGSGTTAHVGIMLYGVDSRSGHRHLDGDRAFHRNSLDIFRIATPHSLGSVWKIRVWHDNKGLSPAWFLQHVIVRDLQTARSAFFLVNDWLSVETEANGGLVEKEVLAASDAALLRFRRLLVAELQRGFFDKHIWLSIWDRPPRSRFTRIQRATCCVLLICLFLGANAVWYGAVGDSAYSTGHVSRLSPLSVDTVAVGLVSSVVVYPVYLAILFLFRMSRSKVAGSPSPTPAGQQVLDIDSCLDSSVLDSSFLTFSGLHAEQAFVGQMKSDLFLDDSKSLVCWPSGEGTLSWPDLLSDPSIVGSNLRQLARGQAGHGLGPEEDGFSLASPYSPAKSFSASDEDLIQQVLAEGVSSPAPTQDTHMETDLLSSLSSTPGEKTETLALQRLGELGPPSPGLNWEQPQAARLSRTGLVEGLRKRLLPAWCASLAHGLSLLLVAVAVAVSGWVGASFPPGVSVAWLLSSSASFLASFLGWEPLKVLLEALYFSLVAKRLHPDEDDTLVESPAVTPVSARVPRVRPPHGFALFLAKEEARKVKRLHGMLRSLLVYMLFLLVTLLASYGDASCHGHAYRLQSAIKQELHSRAFLAITRSEELWPWMAHVLLPYVHGNQSSPELGPPRLRQVRLQEALYPDPPGPRVHTCSAAGGFSTSDYDVGWESPHNGSGTWAYSAPDLLGAWSWGSCAVYDSGGYVQELGLSLEESRDRLRFLQLHNWLDNRSRAVFLELTRYSPAVGLHAAVTLRLEFPAAGRALAALSVRPFALRRLSAGLSLPLLTSVCLLLFAVHFAVAEARTWHREGRWRVLRLGAWARWLLVALTAATALVRLAQLGAADRQWTRFVRGRPRRFTSFDQVAQLSSAARGLAASLLFLLLVKAAQQLRFVRQWSVFGKTLCRALPELLGVTLGLVVLGVAYAQLAILLVSSCVDSLWSVAQALLVLCPGTGLSTLCPAESWHLSPLLCVGLWALRLWGALALGAVILAWRYAALRGELYRPAWEPQDYEMVELFLRRLRLWMGLSKVKEFRHKVRFEGMEPLPSRSSRGSKVSPDVPPPSAGSDASHPSTSSSQLDGLSVSLGRLGTRCEPEPSRLQAVFEALLTQFDRLNQATEDVYQLEQQLHSLQGRRSSRAPAGSSRGPSPGLRPALPSRLARASRGVDLATGPSRTPLRAKNKVHPSST
Q: For B1, which “PC2/PC1 molar ratio of injected cRNA (2.5 pmol PC2 AA, 0.77 pmol PC1-CTF AAA) at which the shift of the reversal potential saturated” value is on record?
A: The value was 3.2 PC2 per PC1 (molar ratio of cRNA).
